From US20220332804A1 (CSL INNOVATION, published 2022) come the findings set out here.

For orientation: Kd means the constant that tells how readily two partners part at equilibrium. A higher Kd goes with lower affinity.

Assay in all cases: SPR, antibody captured, C2 as analyte;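 further: biacore SPR at 37 °C, anti-C2 mAbs captured via goat anti-human IgG on CM5 chips, double-referenced sensorgrams fit to a 1:1 kinetic or steady-state model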
For orientation: In SPR one partner is held on a chip, and binding of the other changes the refractive index at the surface.

One assay deals with T1, human C2 D710A (human, UniProt P06681 21-752).
T1 sequence: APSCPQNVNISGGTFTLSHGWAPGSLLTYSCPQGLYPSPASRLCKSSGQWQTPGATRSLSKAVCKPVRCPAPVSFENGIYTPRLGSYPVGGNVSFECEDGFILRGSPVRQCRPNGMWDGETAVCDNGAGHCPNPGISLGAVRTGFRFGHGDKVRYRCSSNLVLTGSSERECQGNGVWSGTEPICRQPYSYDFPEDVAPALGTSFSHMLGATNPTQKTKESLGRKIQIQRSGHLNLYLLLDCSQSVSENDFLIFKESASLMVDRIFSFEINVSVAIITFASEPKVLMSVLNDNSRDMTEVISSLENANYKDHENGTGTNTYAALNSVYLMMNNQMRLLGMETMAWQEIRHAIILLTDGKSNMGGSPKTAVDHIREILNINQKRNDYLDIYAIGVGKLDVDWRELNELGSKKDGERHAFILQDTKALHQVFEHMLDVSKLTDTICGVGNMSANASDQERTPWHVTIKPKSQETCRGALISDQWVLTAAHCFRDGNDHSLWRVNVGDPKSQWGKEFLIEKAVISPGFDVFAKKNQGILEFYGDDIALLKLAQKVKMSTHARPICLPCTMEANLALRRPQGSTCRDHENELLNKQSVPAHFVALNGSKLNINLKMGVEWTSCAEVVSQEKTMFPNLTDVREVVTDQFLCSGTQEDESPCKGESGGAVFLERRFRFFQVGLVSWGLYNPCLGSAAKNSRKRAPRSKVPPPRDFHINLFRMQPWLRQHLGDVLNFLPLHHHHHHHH

A further assay concerns the target T2, human C2 H331A (human, UniProt P06681 21-752).
T2 sequence: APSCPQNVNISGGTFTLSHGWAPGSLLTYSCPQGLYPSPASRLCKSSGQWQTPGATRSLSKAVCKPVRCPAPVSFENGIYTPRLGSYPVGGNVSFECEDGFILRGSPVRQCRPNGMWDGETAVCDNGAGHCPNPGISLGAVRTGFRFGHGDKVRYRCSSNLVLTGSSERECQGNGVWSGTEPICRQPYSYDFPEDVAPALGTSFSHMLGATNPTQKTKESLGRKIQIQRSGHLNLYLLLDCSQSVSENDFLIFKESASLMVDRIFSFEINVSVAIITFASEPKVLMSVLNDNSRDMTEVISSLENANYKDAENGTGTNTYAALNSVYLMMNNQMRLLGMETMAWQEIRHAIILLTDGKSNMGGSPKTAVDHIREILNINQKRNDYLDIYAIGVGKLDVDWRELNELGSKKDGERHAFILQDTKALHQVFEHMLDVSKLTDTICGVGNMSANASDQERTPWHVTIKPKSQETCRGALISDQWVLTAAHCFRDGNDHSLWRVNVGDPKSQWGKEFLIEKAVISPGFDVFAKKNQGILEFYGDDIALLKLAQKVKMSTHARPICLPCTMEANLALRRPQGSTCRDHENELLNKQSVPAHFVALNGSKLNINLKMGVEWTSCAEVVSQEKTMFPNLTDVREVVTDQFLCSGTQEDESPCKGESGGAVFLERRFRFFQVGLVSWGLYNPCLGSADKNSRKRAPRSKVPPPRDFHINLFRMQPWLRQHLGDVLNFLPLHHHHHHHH

The target in the next assay is T3, human C2 T442A (human, UniProt P06681 21-752).
T3 sequence: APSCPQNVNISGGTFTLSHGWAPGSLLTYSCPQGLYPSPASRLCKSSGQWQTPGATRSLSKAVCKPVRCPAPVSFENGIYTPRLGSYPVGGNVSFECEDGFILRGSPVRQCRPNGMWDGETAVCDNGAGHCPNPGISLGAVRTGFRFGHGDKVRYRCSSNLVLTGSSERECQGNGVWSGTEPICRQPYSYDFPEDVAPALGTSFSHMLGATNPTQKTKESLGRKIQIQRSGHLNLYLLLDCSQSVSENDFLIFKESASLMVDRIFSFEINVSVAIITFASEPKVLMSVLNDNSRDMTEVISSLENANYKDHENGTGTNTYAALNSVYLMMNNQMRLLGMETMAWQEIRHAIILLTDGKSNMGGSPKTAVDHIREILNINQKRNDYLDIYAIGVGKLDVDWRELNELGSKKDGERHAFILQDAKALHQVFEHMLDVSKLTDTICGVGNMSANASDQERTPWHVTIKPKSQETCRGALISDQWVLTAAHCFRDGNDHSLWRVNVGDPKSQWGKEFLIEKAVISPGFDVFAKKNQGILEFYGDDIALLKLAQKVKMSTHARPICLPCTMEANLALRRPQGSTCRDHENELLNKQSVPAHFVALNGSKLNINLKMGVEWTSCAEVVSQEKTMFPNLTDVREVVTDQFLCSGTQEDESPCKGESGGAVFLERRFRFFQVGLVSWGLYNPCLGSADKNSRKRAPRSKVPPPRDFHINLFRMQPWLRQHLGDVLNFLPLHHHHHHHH

The next assay has as its target T4, human C2 L453A (human, UniProt P06681 21-752).
T4 sequence: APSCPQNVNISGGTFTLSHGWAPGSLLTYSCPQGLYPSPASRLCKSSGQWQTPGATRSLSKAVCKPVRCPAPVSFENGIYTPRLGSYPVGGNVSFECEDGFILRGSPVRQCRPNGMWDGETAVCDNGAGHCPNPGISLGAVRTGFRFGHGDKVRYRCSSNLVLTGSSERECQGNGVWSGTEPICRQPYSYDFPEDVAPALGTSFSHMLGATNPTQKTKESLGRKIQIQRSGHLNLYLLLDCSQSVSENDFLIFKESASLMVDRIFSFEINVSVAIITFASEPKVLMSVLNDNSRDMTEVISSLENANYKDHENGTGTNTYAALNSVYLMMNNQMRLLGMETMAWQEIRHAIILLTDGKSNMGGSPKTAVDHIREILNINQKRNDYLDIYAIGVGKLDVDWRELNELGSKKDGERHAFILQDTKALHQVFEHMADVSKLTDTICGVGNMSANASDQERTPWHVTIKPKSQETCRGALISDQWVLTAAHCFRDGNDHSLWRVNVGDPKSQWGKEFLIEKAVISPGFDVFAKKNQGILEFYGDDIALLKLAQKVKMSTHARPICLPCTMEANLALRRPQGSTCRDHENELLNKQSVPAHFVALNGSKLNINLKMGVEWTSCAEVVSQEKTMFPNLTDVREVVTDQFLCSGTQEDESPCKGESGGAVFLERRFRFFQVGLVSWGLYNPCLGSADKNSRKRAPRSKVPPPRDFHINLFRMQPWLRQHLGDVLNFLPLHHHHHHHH

B1: RF16-226 (antibody, human IgG4 S228P, lambda)
heavy: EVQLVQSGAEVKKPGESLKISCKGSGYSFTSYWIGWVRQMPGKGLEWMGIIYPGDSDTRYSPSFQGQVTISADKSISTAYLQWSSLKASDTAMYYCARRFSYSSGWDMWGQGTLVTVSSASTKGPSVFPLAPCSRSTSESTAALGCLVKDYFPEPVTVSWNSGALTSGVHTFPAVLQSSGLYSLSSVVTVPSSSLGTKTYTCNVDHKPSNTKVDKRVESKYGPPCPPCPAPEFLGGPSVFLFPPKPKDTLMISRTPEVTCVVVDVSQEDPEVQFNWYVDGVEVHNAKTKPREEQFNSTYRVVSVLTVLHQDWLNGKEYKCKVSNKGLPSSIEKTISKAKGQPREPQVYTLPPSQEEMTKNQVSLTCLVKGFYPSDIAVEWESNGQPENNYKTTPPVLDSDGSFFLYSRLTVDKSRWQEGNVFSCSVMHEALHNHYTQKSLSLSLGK
light: SYELTQPPSVSVSPGQTARITCSGDALTSKYVAWYQQKSGLAPLLVIYEDTRRPSGIPAKFSGSSSGSVATLTISGAHGDDEADYYCYSTDASGHQRVFGGGTKLTVLSQPKAAPSVTLFPPSSEELQANKATLVCLISDFYPGAVTVAWKADGSPVKAGVETTKPSKQSNNKYAASSYLSLTPEQWKSHRSYSCQVTHEGSTVEKTVAPTECS
notes: pH-dependent anti-C2 antibody from a phage display library; also called WT
On to B1, for which the results for the Kd with human C2 D710A, in the assay with human C2 T442A and with human C2 L453A were 97.4 nM, 23.7 nM and 29.9 nM, respectively. In addition, in the assay with human C2 H331A, the binding result was “no binding”.
